Columns and labels:
[1] = test system: PC3 cells; test: Soft agar assay (anchorage-independent growth); type: cell-based, human; conditions: stable overexpression in PC3 sublines
Protocol: FIGS. 4A-4D show the effect of calreticulin overexpression on colony formation of PC3 cells in a soft agar assay, PC3 (FIG. 4A), Mock (FIG. 4B), Crt 35 (FIG. 4C) and Crt 59 (FIG. 4). The soft agar assay was conducted in 6-well plates. The bottom agar is 2 ml 0.6% noble agar containing 1×RPMI 1640 medium supplemented with 10% fetal bovine serum (FBS). After the preparation of bottom agar, 1 ml of 0.3% top agar containing 5,000 cells and 1×RPMI 1640 medium supplemented with 10% FBS was added to form the top layer. The assay for each PC3 subline was carried out in duplicate and was repeated at least 3 times.
Colonies with greater than 125 um in diameter were counted in the quantification. Error bars represent standard error means (SEM).
Soft agar assay: The soft agar assay was conducted in 6-well plates. The bottom agar is 2 ml 0.6% noble agar containing 1×RPMI 1640 medium supplemented with 10% FBS. After the preparation of bottom agar, 1 ml of 0.3% top agar containing 5,000 cells and 1×RPMI 1640 medium supplemented with 10% FBS was added to form the top layer. The assay for each PC3 subline was carried out in duplicate and was repeated at least 3 times.

[2] = Repeat A of the Proline-rich Domain; read-out: Kd, high affinity Ca++ binding; cited from earlier work
[3] = test system: TSU prostate cancer cells; test: Anchorage-independent growth of TSU cells; type: cell-based, human; conditions: overexpression in TSU cells
Source text: Anchorage-independent growth in soft agar correlates with the metastatic potential of cancer cells [Cifone and Fidler, Proc. Nat. Acad. Sci. USA, 77:1039-43 (1980)].

[4] = test system: xenograft rat Dunning AT3.1 prostate cancer cells; test: Metastasis of AT3.1 xenografts in nude mice; type: in vivo; conditions: restoration of calreticulin expression
[5] = test system: prostate cancer cell; test: Effect of calreticulin overexpression on other cellular functions; type: cell-based

B1: calreticulin: multi-functional Ca++ binding protein of the endoplasmic reticulum, human SEQ ID NO:36; overexpressed from pcDNA3.1/crt (protein)
chain: MLLSVPLLLGLLGLAVAEPAVYFKEQFLDGDGWTSRWIESKHKSDFGKFVLSSGKFYGDEEKDKGLQTSQDARFYALSASFEPFSNKGQTLVVQFTVKHEQNIDCGGGYVKLFPNSLDQTDMHGDSEYNIMFGPDICGPGTKKVHVIFNYKGKNVLINKDIRCKDDEFTHLYTLIVRPDNTYEVKIDNSQVESGSLEDDWDFLPPKKIKDPDASKPEDWDERAKIDDPTDSKPEDWDKPEHIPDPDAKKPEDWDEEMDGEWEPPVIQNPEYKGEWKPRQIDNPDYKGTWIHPEIDNPEYSPDPSIYAYDNFGVLGLDLWQVKSGTIFDNFLITNDEAYAEEFGNETWGVTKAAEKQMKDKQDEEQRLKEEEEDKKRKEEEEAEDKEDDEDKDEDEEDEEDKEEDEEEDVPGQAKDEL
In the case of B1, the “colony formation in soft agar” value [1] is listed as “significantly inhibited the size and number of the PC3 colonies”, the Kd [2] is listed as 1600 nM and the anchorage-independent growth [3] is listed as “markedly inhibited anchorage-independent growth”. For the same molecule, the metastasis of xenograft [4] was “markedly inhibits the metastasis”, the “Ca++ ionophore-induced apoptosis” value [5] was “inhibits Ca^((+))((+)) ionophore-induced apoptosis” and the cell attachment [5] was “enhances cell attachment”. For the same molecule, the cell proliferation [5] was “inhibits prostate cancer cell proliferation”.
